One block for each binder: values may come before it.
Assays:
Assay in all cases: dose-dependent binding with Scatchard plot analysis
[1] = target: mIgCLL3-2, CLL-derived monoclonal Igγ1 antibody of clonotype CLL3
[2] = target: mIgCLL6-1, CLL-derived monoclonal Igγ1 antibody of clonotype CLL6-1
[3] = target: mIgCLL2-1, CLL-derived monoclonal Igγ1 antibody of clonotype CLL2
[4] = target: mIgCLL6-2, CLL-derived monoclonal Igγ1 antibody of clonotype CLL6-2
[5] = target: mIgCLL5-2, CLL-derived monoclonal Igγ1 antibody of clonotype CLL5-2
[6] = target: mIgCLL3-1, CLL-derived monoclonal Igγ1 antibody of clonotype CLL3
[7] = target: mIgCLL5-1, CLL-derived monoclonal Igγ1 antibody of clonotype CLL5-1
[8] = target: mIgCLL2-2, CLL-derived monoclonal Igγ1 antibody of clonotype CLL2

B4: pCLL6-2 mimotope (peptide)
peptide: CTTVIPERC
Kd [4]: 22.7 nM

B6: pCLL3-1 mimotope (peptide)
peptide: CPPQSVTEC
Kd [6]: 22.1 nM

B7: pCLL5-1 mimotope (peptide)
peptide: CFSDDEWWC
Kd [7]: 7.08 nM

B8: pCLL2-2 mimotope (peptide)
peptide: CKSYSVSLC
Kd [8]: 7.57 nM

More lines, now with the values ahead:

Kd [1]: 5.64 nM
B1: pCLL3-2 mimotope (peptide)
peptide: CDVWHSAYC

Kd [2]: 57.5 nM
B2: pCLL6-1 mimotope (peptide)
peptide: CNQDWHKKC

Kd [3]: 10.8 nM
B3: pCLL2-1 mimotope (peptide)
peptide: CNTYSVSLC

Kd [5]: 7.32 nM
B5: pCLL5-2 mimotope (peptide)
peptide: CPPFTNYEC

— publication PMC5155031
